# Measurements as given in the supplement of paper PMC7877785.
# ± gives the uncertainty stated by the source.
# Assay: self-splicing fitness, log relative to wild type (ln ratio); higher = more splicing; Tetrahymena group I intron in knt gene, E. coli kanamycin selection, DiMSum; sequences stand for … in CUCUCU…GGAGGGAAAAGUUAUCAGGCAUGCACCUGGUAGCUAGUCUUUAAACCAAUAGAUUGCAUCGGUUUAAAAGGCAAGACCGUCAAAUUGCGGGAAAGGGGUCAACAGCCGUUCAGUACCAAGUCUCAGGGGAAACUUUGAGAUGGCCUUGCAAAGGGUAUGGUAAUAAGCUGACGGACAUGGUCCUAACCACGCAGCCAAGUCCUAAGUCAACAGAUCUUCUGUUGAUAUGGAUGCAGUUCACAGACUAAAUGUCGGUCGGGGAAGAUGUAUUCUUCUCAUAAGAUAUAGUCGGACCUCUCCUUAAUGGGAGCUAGCGGAUGAAGUGAUGCAACACUGGAGCCGCUGGGAACUAAUUUGUAUGCGAAAGUAUAUUGAUUAGUUUUGGAGUACUCGUGGUCG
# Outline: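 Fitness was computed with DiMSum as the error-weighted combination of replicate fold changes, kanamycin versus none, each normalised to wild type. The library randomised all eight intron nucleotides of the P1ex region, with the intron placed in the knt kanamycin-resistance gene on pET-22b(+) in E. coli BL21(DE3). Six replicate transformations were grown overnight at 37°C or 30°C on LB agar with or without 25 μg/mL kanamycin, plus 100 μg/mL carbenicillin, 50 μM IPTG and 0.2% rhamnose. Pooled colonies were amplicon-sequenced on an Illumina HiSeq 2500.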
sequence,measurement,setting,value
UCAAAGCAAUAUUACGAAAA,self-splicing fitness (ln),37 °C,-2.95 ± 0.27
UCAAAGCAAUAUUACGAACG,self-splicing fitness (ln),30 °C,-0.696 ± 0.076
same,self-splicing fitness (ln),37 °C,-0.646 ± 0.11
UCAAAGCAAUAUUACGAAUG,self-splicing fitness (ln),30 °C,-1.71 ± 0.11
same,self-splicing fitness (ln),37 °C,-1.67 ± 0.25
UCAAAGCAAUAUUACGAGAC,self-splicing fitness (ln),30 °C,-3.15 ± 0.17
same,self-splicing fitness (ln),37 °C,-2.76 ± 0.22
UCAAAGCAAUAUUACGAGUG,self-splicing fitness (ln),30 °C,-0.846 ± 0.048
same,self-splicing fitness (ln),37 °C,-0.965 ± 0.067
UCAAAGCAAUAUUACGAUCU,self-splicing fitness (ln),30 °C,-2.82 ± 0.13
same,self-splicing fitness (ln),37 °C,-0.778 ± 0.12
UCAAAGCAAUAUUACGCAAG,self-splicing fitness (ln),30 °C,-2.18 ± 0.14
same,self-splicing fitness (ln),37 °C,-1.48 ± 0.15
UCAAAGCAAUAUUACGCAUC,self-splicing fitness (ln),30 °C,-3.83 ± 0.19
same,self-splicing fitness (ln),37 °C,-3.11 ± 0.31
UCAAAGCAAUAUUACGCAUU,self-splicing fitness (ln),30 °C,-3.2 ± 0.4
same,self-splicing fitness (ln),37 °C,-3.34 ± 0.37
UCAAAGCAAUAUUACGCCAC,self-splicing fitness (ln),30 °C,-2.5 ± 0.24
same,self-splicing fitness (ln),37 °C,-2.07 ± 0.38
UCAAAGCAAUAUUACGCCAG,self-splicing fitness (ln),30 °C,-1.35 ± 0.13
same,self-splicing fitness (ln),37 °C,-0.892 ± 0.18
UCAAAGCAAUAUUACGCCCG,self-splicing fitness (ln),30 °C,-1.66 ± 0.2
same,self-splicing fitness (ln),37 °C,-0.884 ± 0.27
UCAAAGCAAUAUUACGCCCU,self-splicing fitness (ln),30 °C,-3.06 ± 0.44
same,self-splicing fitness (ln),37 °C,-0.887 ± 0.18
UCAAAGCAAUAUUACGCGAA,self-splicing fitness (ln),30 °C,-1.88 ± 0.11
same,self-splicing fitness (ln),37 °C,-0.986 ± 0.12
UCAAAGCAAUAUUACGCGCU,self-splicing fitness (ln),30 °C,-3.63 ± 0.47
same,self-splicing fitness (ln),37 °C,-2.53 ± 0.45
UCAAAGCAAUAUUACGCGGA,self-splicing fitness (ln),30 °C,-2.87 ± 0.13
same,self-splicing fitness (ln),37 °C,-1.37 ± 0.11
UCAAAGCAAUAUUACGCUGC,self-splicing fitness (ln),30 °C,-3.2 ± 0.43
same,self-splicing fitness (ln),37 °C,-2.49 ± 0.33
UCAAAGCAAUAUUACGGCUG,self-splicing fitness (ln),30 °C,-0.827 ± 0.056
same,self-splicing fitness (ln),37 °C,0.231 ± 0.078
UCAAAGCAAUAUUACGGGAC,self-splicing fitness (ln),30 °C,-1.98 ± 0.2
same,self-splicing fitness (ln),37 °C,-1.75 ± 0.25
UCAAAGCAAUAUUACGGGCG,self-splicing fitness (ln),30 °C,-0.842 ± 0.065
same,self-splicing fitness (ln),37 °C,-0.266 ± 0.083
UCAAAGCAAUAUUACGGGGA,self-splicing fitness (ln),30 °C,-0.69 ± 0.075
same,self-splicing fitness (ln),37 °C,-0.383 ± 0.085
UCAAAGCAAUAUUACGUCUA,self-splicing fitness (ln),30 °C,-1.92 ± 0.1
same,self-splicing fitness (ln),37 °C,-0.787 ± 0.098
UCAAAGCAAUAUUACGUGAA,self-splicing fitness (ln),30 °C,-1.42 ± 0.069
same,self-splicing fitness (ln),37 °C,-1.06 ± 0.1
UCAAAGCAAUAUUACGUGGU,self-splicing fitness (ln),30 °C,-4.25 ± 0.26
same,self-splicing fitness (ln),37 °C,-2.19 ± 0.18
UCAAAGCAAUAUUACGUUUG,self-splicing fitness (ln),30 °C,-3.43 ± 0.16
same,self-splicing fitness (ln),37 °C,-1.82 ± 0.14
UCACAGCAAUAUUACGAAAG,self-splicing fitness (ln),30 °C,-3.82 ± 0.25
same,self-splicing fitness (ln),37 °C,-2.73 ± 0.23
UCACAGCAAUAUUACGAGCA,self-splicing fitness (ln),30 °C,-1.28 ± 0.081
same,self-splicing fitness (ln),37 °C,0.102 ± 0.089
UCACAGCAAUAUUACGAGCC,self-splicing fitness (ln),30 °C,-2.07 ± 0.22
same,self-splicing fitness (ln),37 °C,-2.3 ± 0.5
UCACAGCAAUAUUACGCAGA,self-splicing fitness (ln),30 °C,-2.54 ± 0.12
same,self-splicing fitness (ln),37 °C,-2.16 ± 0.14
UCACAGCAAUAUUACGCAUU,self-splicing fitness (ln),30 °C,-2.93 ± 0.22
UCACAGCAAUAUUACGCCAC,self-splicing fitness (ln),37 °C,-3.66 ± 0.3
UCACAGCAAUAUUACGCCCC,self-splicing fitness (ln),30 °C,-0.433 ± 0.3
same,self-splicing fitness (ln),37 °C,-1.51 ± 0.41
UCACAGCAAUAUUACGCGGA,self-splicing fitness (ln),30 °C,-1.81 ± 0.18
same,self-splicing fitness (ln),37 °C,-2.12 ± 0.27
UCACAGCAAUAUUACGCGUC,self-splicing fitness (ln),30 °C,-3.18 ± 0.31
same,self-splicing fitness (ln),37 °C,-1.55 ± 0.16
UCACAGCAAUAUUACGCUAA,self-splicing fitness (ln),30 °C,-2.39 ± 0.12
same,self-splicing fitness (ln),37 °C,-2.27 ± 0.18
UCACAGCAAUAUUACGCUCU,self-splicing fitness (ln),30 °C,-2.38 ± 0.16
same,self-splicing fitness (ln),37 °C,-3.34 ± 0.47
UCACAGCAAUAUUACGCUUG,self-splicing fitness (ln),30 °C,-2.14 ± 0.12
same,self-splicing fitness (ln),37 °C,0.263 ± 0.1
UCACAGCAAUAUUACGGAAA,self-splicing fitness (ln),30 °C,-3.16 ± 0.24
same,self-splicing fitness (ln),37 °C,-1.85 ± 0.18
UCACAGCAAUAUUACGGCAC,self-splicing fitness (ln),30 °C,-2.93 ± 0.27
same,self-splicing fitness (ln),37 °C,-2.49 ± 0.31
UCACAGCAAUAUUACGGUUA,self-splicing fitness (ln),30 °C,-0.541 ± 0.072
same,self-splicing fitness (ln),37 °C,0.291 ± 0.08
UCACAGCAAUAUUACGUAAU,self-splicing fitness (ln),30 °C,-3.25 ± 0.21
same,self-splicing fitness (ln),37 °C,-2.54 ± 0.29
UCACAGCAAUAUUACGUAUA,self-splicing fitness (ln),30 °C,-2.64 ± 0.12
same,self-splicing fitness (ln),37 °C,-1.37 ± 0.1
UCACAGCAAUAUUACGUAUC,self-splicing fitness (ln),30 °C,-4.32 ± 0.46
same,self-splicing fitness (ln),37 °C,-2.75 ± 0.19
